Assay results from the supplement of paper PMC9170038.

Test system: MS2 coat protein
Experiment: apparent KD of MS2 coat protein; designed switch direction (-1 OFF switch, 1 ON switch): -1; higher = weaker reporter binding
Method in brief: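 Transcription of designed RNA switches on Illumina chips was done by stalled E. coli RNA polymerase. SNAP-549-labelled MS2 coat protein was then titrated in doubling steps from 0.7 or 1.5 nM to 3 µM, with steps of 0.8–1.5 h at the lowest and 10–20 min at the highest concentration. The per-design median over clusters of curve-fitted normalised fluorescence is reported as apparent KD.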

[1] = Eterna round: R95, input ligand: microRNA oligo, concentration not stated
[2] = input ligand: microRNA oligo, concentration not stated
[3] = Eterna round: R95, input ligand: FMN 200 uM
[4] = Eterna round: R95, input ligand: none

Row | Sequence | apparent KD of MS2 coat protein (input ligand: FMN 200 uM) | apparent KD of MS2 coat protein (input ligand: none) | apparent KD of MS2 coat protein [1] | apparent KD of MS2 coat protein [2] | apparent KD of MS2 coat protein [3] | apparent KD of MS2 coat protein [4]
1 | UAAACAAGCUUAAGAUCCUACAUGAGGAUCACCCAUGUGCUCGUCUUAUAAGGUACUGUGACGAAAGUCACGGUACC [JL TOV1 3.06] (Eterna round: R97, puzzle: Sensor, turn-off variant 1) | 226 nM | 194 nM | – | – | – | –
2 | UAAACAUGGAUAUAACAGUACAUGAGGAUCACCCAUGUUAAUACGAUAGAUUAUAACAAGCUUUUUUGUCGUCUUAA [Cooked Book] (Eterna round: R97, puzzle: Sensor, turn-off variant 1) | 116 nM | 85.4 nM | – | – | – | –
3 | UAAAGAUAAGGAUAUUGAAGGUUCGACAUGAGGAUCACCCAUGUUAUGUUGGAAAAGGGACAAGAAGGUAUGAAAU [salish99_ex5_r4_207] (Eterna round: R97, puzzle: Exclusion 5) | 35.9 nM | 37 nM | – | – | – | –
4 | UAAAGUAUAUAGGAUAUCUAGCUGGUAACAGCUAGAGAAGGAUGUACAUGAGGAUCACCCAUGUAAAUCAUGAA [Ex6/16-A2] (Eterna round: R97, puzzle: Exclusion 6) | 20.8 nM | 17.3 nM | – | – | – | –
5 | UAAAUGUGAGGAUAUCAGGUGUGCUAGCGUACUGGUACAUCUGAGAAGGCACAUGAGGAUCACCCAUGUUCCUU [Mat - Exclusion 4 - Mod of JL - D49] (puzzle: Exclusion 4) | – | – | 16.7 nM | – | – | –
6 | UAACAAAUGGUCAGGAUAUCAUUCCCGGCCCAGAGUGAGAAGGGACAUGAGGAUCACCCAUGUGUGAUUCUCAU [jl-ex4-4.55 ViennaUCT mod] (Eterna round: R97, puzzle: Brourd's mod of Exclusion 4) | 128 nM | 97.1 nM | – | – | – | –
7 | UAACAUGUAGAAGGAUAUCUGCACGAUUAGUGCAGAGAAGGUCUAACAUGAGGAUCACCCAUGUAGAUCAUUAAUUAAUUAAUU [ENG1/8-B1] (Eterna round: R96, puzzle: Exclusion NG 1) | 15.2 nM | 12.4 nM | – | 8.43 nM | – | –
8 | UAAGAUUACCGAGGAUAUGGUGGUUUCUAUUAACCAGAAGGCGGACUCAACAUGAGGAUCACCCAUGUAUAAAGGGUAUUAGAU [Ex NG1 #8] (Eterna round: R96, puzzle: Exclusion NG 1) | 134 nM | 144 nM | – | 112 nM | – | –
9 | UAAGUGCUGCGAGGAUAUACAUGAGGAUCACCCAUGUGGAUGUCUGAGGCUUUGCCUCAGACGAUGUAGAAGGCGCAGUACAAU [Mat - Exclusion NG 2 - Mod of JL - D51] (Eterna round: R96, puzzle: Exclusion NG 2) | 77.3 nM | 20.6 nM | – | 11.1 nM | – | –
10 | UAAGUUUACCGAGGAUAUGGUUUUUCCUAUUAACCAGAAGGCGGACUCAACAUGAGGAUCACCCAUGUAUAAAGGGUAUUAGGU [JR_ExcNG1_Sub044] (Eterna round: R96, puzzle: Exclusion NG 1) | 88.5 nM | 74.2 nM | – | 68 nM | – | –
11 | UAAGUUUUGGUAGGAUAUACUUUAAAUUUCUCUAUCCAUACAUGAGGAUCACCCAUGUUUACAUUGUAGAAGGACCUUUAUGUU [JR_ExcNG2_Sub057] (Eterna round: R96, puzzle: Exclusion NG 2) | – | – | – | 30.2 nM | – | –
12 | UAAUAAAGUGUGAGGAUAUGCUGGUCCUUAGAUCAGCAGAAGGCACAUGAGGAUCACCCAUGUAAUAUAUAAAU [Mat - Exclusion 4 - JL Mod - D56] (Eterna round: R96, puzzle: Brourd's mod of Exclusion 4) | – | – | – | 29 nM | – | –
13 | UAAUAAAGUGUGAGGAUAUGCUGGUCCUUAGAUCAGCAGAAGGCACAUGAGGAUCACCCAUGUAAUAUAUAAAU [Mat - Exclusion 4 - JL Mod - D56] (puzzle: Brourd's mod of Exclusion 4) | – | – | 22.8 nM | – | 245 nM | 30.3 nM
14 | UAAUAACAUGUAGGAUAUGCGUGGCGAAGCUAUGCAGAAGGACAUGAGGAUCACCCAUGUUAAAGCGUCUGAGAACAGAUGCGA [Mat - Exclusion NG 1 - Mod of JL - D98] (Eterna round: R96, puzzle: Exclusion NG 1) | 165 nM | 30.5 nM | – | 24.9 nM | – | –
15 | UAAUACAAGUAAGGAUUCUACAUGAGGAUCACCCAUGUGCUCGUCUUAUAAAGUACUAUCACGAAAGUGAUAGUACU [Mat - Sensor v3 - turn-off var 1 - Eli Mod - D100] (puzzle: Sensor v3, turn-off variant 1) | – | – | 199 nM | – | 21.8 nM | 22.5 nM
16 | UAAUAUCUGUAGGAUAUCAGUGGAGAACACGUAUGAGAAGGGCAGACAUGAGGAUCACCCAUGUAUAGGGUCCG [BotMod 6 - Jieux - Exclusion 6] (Eterna round: R97, puzzle: Exclusion 6) | 59.1 nM | 20.2 nM | – | – | – | –

Row | Sequence | apparent KD of MS2 coat protein (input ligand: FMN 200 uM) | apparent KD of MS2 coat protein (input ligand: none) | apparent KD of MS2 coat protein [1] | apparent KD of MS2 coat protein [2] | apparent KD of MS2 coat protein [3] | apparent KD of MS2 coat protein [4]
17 | UAAUGCAAGCAAAGAUCUUACAUGAGGAUCACCCAUGUGCUCGUCUUAUAAAGUACUAUCACGAAAGUGAUAGUACA [Mat - Sensor v3 - turn-off var 1 - Eli Mod - D91] (puzzle: Sensor v3, turn-off variant 1) | – | – | 109 nM | – | 27.6 nM | 26.3 nM
18 | UAAUGCAAGCAAAGAUCUUACAUGAGGAUCACCCAUGUGCUCGUCUUAUAAAGUACUAUCACGAAAGUGAUAGUACU [Mat - Sensor v3 - turn-off var 1 - Eli Mod - D92] (puzzle: Sensor v3, turn-off variant 1) | – | – | 129 nM | – | 31.5 nM | 25.2 nM
19 | UAAUGUGCGAGAGGAUAUCGUGUACAAAGUACACGAGAAGGCUUCACAUGAGGAUCACCCAUGUAUCGAGGUGAAACACCUUGG [Omei Exc(NG)1 Bv2] (Eterna round: R96, puzzle: Exclusion NG 1) | 703 nM | 318 nM | – | 285 nM | – | –
20 | UAAUUAAUAAGAUCAAUUAAUUAACAUGAGGAUCACCCAUGUGAGGAUAUCAGCUCGUGUAGAGCUGAGAAGGCACAAUAAUUA [ExNG3/17-C3] (Eterna round: R96, puzzle: Exclusion NG 3) | 203 nM | 51.9 nM | – | 38.8 nM | – | –
21 | UAAUUAAUUAAUAAAUAAUACAUGAGGAUCACCCAUGUAGAUCCUACAUACAAUUUAAGUAGCUCGUCUUAUUAUUA [Sensor-V1 #61] (Eterna round: R97, puzzle: Sensor, turn-off variant 1) | 200 nM | 255 nM | – | – | – | –
22 | UAAUUUUUAGUAAGGAUAUCGGUCCCAAGGGACAACGAGAAGGUACAUGAGGAUCACCCAUGUGAAAUAAGAAU [Mod of Zala 4 - Jieux - Brourd's Mod of Exclusion 4] (Eterna round: R97, puzzle: Brourd's mod of Exclusion 4) | 27.9 nM | 17.3 nM | – | – | – | –
23 | UACACUGCAUGAGGAUCAAACAUGAGGAUCACCCAUGUAUAACAAGCUUUUUGCACGUCUUAUAAUUAUGUAGUGUA [Electric Eye 14 - Jieux - Sensor, turn-off variant 1] (Eterna round: R97, puzzle: Sensor, turn-off variant 1) | 15.3 nM | 16.2 nM | – | – | – | –
24 | UACAUGAGGAUCACCCAUGUUUUGUCGUGUAUGGUAAUAAUCUAGGAUAUCAAUUUAUUUAUUUAUGAGAAGGAGAAUAAUAAA [JMF's solution 4] (Eterna round: R96, puzzle: Exclusion NG 3) | 67.1 nM | 61.7 nM | – | 55.9 nM | – | –
25 | UACAUGAGGAUCACCCAUGUUUUGUCGUGUAUGGUAUUUAUCUAGGAUAUCAAUUGAUUAAUUUAUGAGAAGGAGAAUAUUAAU [JMF's solution 60] (Eterna round: R96, puzzle: Exclusion NG 3) | 39.9 nM | 34.4 nM | – | 39.1 nM | – | –
26 | UACAUGAGGAUCACCCAUGUUUUGUCGUGUAUGGUAUUUAUCUAGGAUAUCAAUUGGUUUAUUUAUGAGAAGGAGAAUAUUAAU [JMF's solution 57] (Eterna round: R96, puzzle: Exclusion NG 3) | 36.1 nM | 33.3 nM | – | 31.6 nM | – | –
27 | UACAUGAGGAUCACCCAUGUUUUGUCGUGUAUGGUAUUUAUCUAGGAUAUCAAUUUAGUUAUUUAUGAGAAGGAGAAUAUUAAU [JMF's solution 18] (Eterna round: R96, puzzle: Exclusion NG 3) | 33.6 nM | 43.1 nM | – | 32.8 nM | – | –
28 | UACCUGAGGCUUUGCUUUAGGCUUACAUGAGGAUCACCCAUGUAGGAUAUGGUAGGCUUUGCUUACCAGAAGGACAUGGAAAUU [Mat - Exclusion NG 3 - Mod of JL - D20] (Eterna round: R96, puzzle: Exclusion NG 3) | 349 nM | 70.7 nM | – | 63 nM | – | –
29 | UACCUGUAGGUAGGAUAUCAUUGCGAUUAGCUAUGAGAAGGACCACAUGAGGAUCACCCAUGUCUACUCAGGAACCGAAAGGUC [Fiskers ExNg1 - 1] (Eterna round: R96, puzzle: Exclusion NG 1) | 13 nM | 17.3 nM | – | 10.4 nM | – | –
30 | UACUUGUUAGGAUAUCUUACAUUUGCAUCAUAGUAACCAUUGGAGAAGGGACAUGAGGAUCACCCAUGUUUGGA [tap-tap-tappy2] (Eterna round: R97, puzzle: Exclusion 4) | 32.2 nM | 31.5 nM | – | – | – | –
31 | UAGAAACAUGAGGAUCACCCAUGUGAGGAUAUGAAAAAGAAAAGAAAAGAAAGAAGAAUCAGAAGGCACAAAGG [salish99-ex1_r3_082] (puzzle: Exclusion 1) | – | – | 35.8 nM | – | 38.1 nM | 28.7 nM
